# Measured values reported in article PMC6150197, “NeoBOMB1, a GRPR-Antagonist for Breast Cancer Theragnostics: First Results of a Preclinical Study with [^67Ga]NeoBOMB1 in T-47D Cells and Tumor-Bearing Mice” (Molecules : A Journal of Synthetic Chemistry and Natural …, 2017).
# Like-named read-outs stand apart in the source and are kept apart here.
# Experiments:
# [1] = male Swiss albino mice, iv 3 nmol total peptide, radio-HPLC
# Protocol: [^67Ga]NeoBOMB1 was injected as a 100 μL bolus (11–22 MBq, 3 nmol total peptide) in the tail vein of male Swiss albino mice (30 ± 5 g, NCSR “Demokritos” Animal House Facility). Mice were anesthetized, and blood (0.5–1 mL) was collected from the heart at 5 and 30 min post injection (pi). Animals were euthanized and blood directly drawn from the heart was transferred in a pre-chilled EDTA-containing Eppendorf tube on ice. Blood samples were centrifuged for 10 min at 2000× g at 4 °C and plasma was collected. After addition of an equal volume of ice-cold MeCN the mixture was centrifuged for 10 min at 15,000× g at 4 °C. The supernatant was concentrated under a N2-flux at 40 °C to 0.05–0.1 mL, diluted with saline (0.4 mL), filtered through a 0.22 μm Millex GV filter (Millipore, Milford, MA, USA) and analyzed by RP-HPLC. The Symmetry Shield RP18 (5 μm, 3.9 mm × 20 mm) column was eluted at a flow rate of 1.0 mL/min with the following linear gradient: 100% A and 0% B to 50% A and 50% B in 50 min; (A = 0.1% aqueous TFA (v/v) and B = MeCN). The tR of the intact radiopeptide was determined by coinjection with the [^67Ga]NeoBOMB1 reference in the HPLC.
# in vivo = details: female, SCID, mouse, iv, total radioactivity, Biodistribution, mean ± sd, n = 4; for tissue uptake at 4 h: 4 h pi; for tissue uptake at 1 h: 1 h pi; for tissue uptake at 24 h: 24 h pi
# Protocol: Female SCID mice (15 ± 3 g, six weeks of age animals at the day of arrival, NCSR “Demokritos” Animal House Facility) were acclimatized under aseptic conditions and treated with estrogens (receiving 4 mg/L β-estradiol, Sigma-Aldrich, St. Louis, MO, USA, in their drinking water,) for a week prior to inoculation. A ≈ 150 μL bolus containing a suspension of ≈1.2 × 10^7 freshly harvested human T-47D cells suspended in Matrigel (Corning Life Sciences, Inc., Bedford, MA, USA) was subcutaneously injected in their flanks. The animals were kept under estrogen treatment for additional 8 weeks till they developed well-palpable tumors (100–200 mg) at the inoculation sites.
# On the day of the experiment animals were allowed access to water, but not to food. Animals in 3 groups of 4 received a 100 μL bolus of [^67Ga]NeoBOMB1 (37 kBq, corresponding to 10 pmol, or 200 pmol total peptide or 40 nmol for in vivo GRPR-blockade for each of the 3 groups) was injected in the tail vein; animals were euthanized at 4 h pi and dissected. Samples of blood, tumors and organs of interest were collected, weighed and measured for radioactivity in the gamma counter. Intestines and stomach were not emptied of their contents. In another experimental setting, mice in 3 groups of 4 received a 100 μL bolus of [^67Ga]NeoBOMB1 (37 kBq, 200 pmol); they were euthanized at 1 h, 4 h and 24 h pi and biodistribution was conducted as described above. Statistical analysis was conducted using the unpaired two-tailed Student’s t-test; values p < 0.05 were considered statistically significant.
# [2] = T-47D tumor, 200 pmol, Tumor, 200 pmol peptide (0.185 MBq/nmol) iv, Table 2 time study
# [3] = blood, 200 pmol, 200 pmol peptide (0.185 MBq/nmol) iv, Table 2 time study
# [4] = femur, 200 pmol, 200 pmol peptide (0.185 MBq/nmol) iv, Table 2 time study
# [5] = heart, 200 pmol, 200 pmol peptide (0.185 MBq/nmol) iv, Table 2 time study
# [6] = intestines (not emptied), 200 pmol, Intestines, 200 pmol peptide (0.185 MBq/nmol) iv, Table 2 time study
# [7] = kidneys, 200 pmol, 200 pmol peptide (0.185 MBq/nmol) iv, Table 2 time study
compound,measurement,setting,value
"CC(C)CC(CC(C)C)NC(=O)[C@H](Cc1cnc[nH]1)NC(=O)CNC(=O)[C@@H](NC(=O)[C@H](C)NC(=O)[C@H](Cc1c[nH]c2ccccc12)NC(=O)[C@H](CCC(N)=O)NC(=O)[C@@H](Cc1ccccc1)NC(=O)COCC(=O)Nc1ccc(CNC(=O)CN2CCN(CC(=O)O)CCN(CC(=O)O)CCN(CC(=O)O)CC2)cc1)C(C)C [[^67Ga]NeoBOMB1, metal not drawn]",Intact radioligand in mouse circulation,[1]; blood collected 5 min pi,98%
same,Intact radioligand in mouse circulation,[1]; blood collected 30 min pi,90%
same,tissue uptake at 4 h,"in vivo; T-47D tumor, 10 pmol, Tumor, 10 pmol peptide (3.7 MBq/nmol) iv",9.52 ± 2.15 %ID/g
same,tissue uptake at 1 h,in vivo; [2],7.4 ± 0.68 %ID/g
same,tissue uptake at 4 h,"in vivo; T-47D tumor, 200 pmol, Tumor, 200 pmol peptide (0.185 MBq/nmol) iv, Table 1 dose study",7.79 ± 1.54 %ID/g
same,tissue uptake at 4 h,in vivo; [2],8.67 ± 2.88 %ID/g
same,tissue uptake at 24 h,in vivo; [2],7.89 ± 1.13 %ID/g
same,tissue uptake at 4 h,"in vivo; T-47D tumor, 40 nmol, Tumor, 40 nmol NeoBOMB1, in vivo GRPR-blockade",0.6 ± 0.1 %ID/g
same,tissue uptake at 1 h,in vivo; [3],5.78 ± 0.29 %ID/g
same,tissue uptake at 4 h,in vivo; [3],0.52 ± 0.03 %ID/g
same,tissue uptake at 24 h,in vivo; [3],0.15 ± 0.01 %ID/g
same,tissue uptake at 4 h,"in vivo; femur, 10 pmol, 10 pmol peptide (3.7 MBq/nmol) iv",0.58 ± 0.06 %ID/g
same,tissue uptake at 1 h,in vivo; [4],0.73 ± 0.11 %ID/g
same,tissue uptake at 4 h,"in vivo; femur, 200 pmol, 200 pmol peptide (0.185 MBq/nmol) iv, Table 1 dose study",0.28 ± 0.01 %ID/g
same,tissue uptake at 4 h,in vivo; [4],0.37 ± 0.02 %ID/g
same,tissue uptake at 24 h,in vivo; [4],0.24 ± 0.08 %ID/g
same,tissue uptake at 4 h,"in vivo; femur, 40 nmol, 40 nmol NeoBOMB1, in vivo GRPR-blockade",0.31 ± 0.02 %ID/g
same,tissue uptake at 4 h,"in vivo; heart, 10 pmol, 10 pmol peptide (3.7 MBq/nmol) iv",0.26 ± 0.01 %ID/g
same,tissue uptake at 1 h,in vivo; [5],1.94 ± 0.09 %ID/g
same,tissue uptake at 4 h,"in vivo; heart, 200 pmol, 200 pmol peptide (0.185 MBq/nmol) iv, Table 1 dose study",0.34 ± 0.04 %ID/g
same,tissue uptake at 4 h,in vivo; [5],0.52 ± 0.04 %ID/g
same,tissue uptake at 24 h,in vivo; [5],0.22 ± 0.04 %ID/g
same,tissue uptake at 4 h,"in vivo; heart, 40 nmol, 40 nmol NeoBOMB1, in vivo GRPR-blockade",0.38 ± 0.02 %ID/g
same,tissue uptake at 1 h,in vivo; [6],10.6 ± 0.87 %ID/g
same,tissue uptake at 4 h,in vivo; [6],18.5 ± 2.12 %ID/g
same,tissue uptake at 24 h,in vivo; [6],2.31 ± 0.34 %ID/g
same,tissue uptake at 4 h,"in vivo; intestines, 10 pmol, Intestines (not emptied), 10 pmol peptide (3.7 MBq/nmol) iv",16.7 ± 2.18 %ID/g
same,tissue uptake at 4 h,"in vivo; intestines, 200 pmol, Intestines (not emptied), 200 pmol peptide (0.185 MBq/nmol) iv, Table 1 dose study",15.1 ± 1.52 %ID/g
same,tissue uptake at 4 h,"in vivo; intestines, 40 nmol, Intestines (not emptied), 40 nmol NeoBOMB1, in vivo GRPR-blockade",11.1 ± 2.71 %ID/g
same,tissue uptake at 4 h,"in vivo; kidneys, 10 pmol, 10 pmol peptide (3.7 MBq/nmol) iv",3.4 ± 0.45 %ID/g
same,tissue uptake at 1 h,in vivo; [7],7.33 ± 0.47 %ID/g
same,tissue uptake at 4 h,"in vivo; kidneys, 200 pmol, 200 pmol peptide (0.185 MBq/nmol) iv, Table 1 dose study",2.76 ± 0.26 %ID/g
same,tissue uptake at 4 h,in vivo; [7],3.1 ± 0.75 %ID/g
same,tissue uptake at 24 h,in vivo; [7],2.15 ± 0.42 %ID/g
same,tissue uptake at 4 h,"in vivo; kidneys, 40 nmol, 40 nmol NeoBOMB1, in vivo GRPR-blockade",3.95 ± 0.94 %ID/g
same,tissue uptake at 4 h,"in vivo; liver, 10 pmol, 10 pmol peptide (3.7 MBq/nmol) iv",3.37 ± 0.19 %ID/g
same,tissue uptake at 1 h,"in vivo; liver, 200 pmol, 200 pmol peptide (0.185 MBq/nmol) iv, Table 2 time study",25.7 ± 1.97 %ID/g
same,tissue uptake at 4 h,"in vivo; liver, 200 pmol, 200 pmol peptide (0.185 MBq/nmol) iv, Table 1 dose study",6.5 ± 0.34 %ID/g
